From patent US20100278806A1, “Composition Containing Arazyme for the Prevention and Treatment of Arthritis” (Insect Biotech Co., Ltd., priority 2008, published 2010)

Legend:
[1] = system: joint cartilage of osteoarthritis-induced right knee; assay: Histopathological observation of joint cartilage (H&E, toluidine blue, azan), osteoarthritis-induced rabbits; format: in vivo, NewZealand White Rabbits; details: autopsy at 12 weeks, optical microscope
Source text: (§1) It is known that not only repetitive joint damage but also a lesion similar to that of human degenerative osteoarthritis is induced in a rabbit model with knee meniscus removed. A method for tearing the cranial cruciate ligament is used as a method for inducing osteoarthritis in rabbits (Hulth A. et al., Acta Orthp Scand. 41:522-530, 1970). In the present experiment, the cranial cruciate ligament of a rabbit was torn to induce the instability of joints and simultaneously medial meniscus was removed to induce osteoarthritis.
The cranial cruciate ligaments of right knees of all the experimental animals were torn to induce the instability of joints and medial meniscuses were simultaneously removed to induce osteoarthritis. Sharm-operations were performed on the left knees to be used as a control against administration of a test material. Tear of cranial cruciate ligament and medial meniscus removal were performed as follows. The animals were fasted for 6 to 12 hours prior to the operation and only drinking water was supplied. Subsequently, an anesthetic of Xylazine (Rompun, Bayer Korea Ltd.) at 1.25 ml/6 mg/kg and Zoletil50 (Virbac) at 0.2 ml/10 mg/kg was intramuscularly injected to anesthetize the animals. […]
(§2) In order to induce osteoarthritis effectively, all the animals in the experimental group were subjected to a forced exercise task using a treadmill for 5 min every day from the day 4 after the induction surgery of osteoarthritis, and arthrography was performed on both knee joints at 4 weeks, 8 weeks, and 12 weeks after administration of the test material to measure the changes of joint surface. An autopsy was performed at 12 weeks after administration of the test material to conduct serologic tests of blood samples through collection of blood and control effects of the test material on osteoarthritis were assessed through a histopathological test. […]

[2] = system: joint cartilage of osteoarthritis-induced right knee; assay: Visual observation of the changes of joint cartilage, osteoarthritis-induced rabbits; format: in vivo, NewZealand White Rabbits; details: autopsy at 12 weeks
Source text: as §1
(§3) The cranial cruciate ligaments of right knees of all the experimental animals were torn to induce the instability of joints and medial meniscuses were simultaneously removed to induce osteoarthritis. […]
as §2

[3] = system: Wistar-derived SPF female rats; assay: Acute toxicity experiment of arazyme, single oral administration; format: in vivo
Method: 4 groups, each consisting of 4 Wistar-derived specific pathogen free (SPF) female rats (Orient Co., Ltd., Seoul, Korea), were bred in an animal laboratory under conditions of temperature 22° C.±3° C., humidity 55±10%, and illumination 12 L/12 D. After purchase, the rats were quarantined and adapted in the animal laboratory for 1 week. During the whole test period, 5 or less rats were accommodated in each polycarbonate cage (240 W×390 L×175 H mm). For individual identification, both skin mark using an oil marker and group distinction cards at each breeding box were used. Solid fodder for experimental animals (PMI Nutrition International, USA) was sterilized, and tap water was freely given by a water bottle.
Arazyme in the Examples was dissolved in sterilized water for injection at 0, 1250, 2500, and 5000 mg/kg, prepared at a dose of 10 ml/kg, and orally administered to the rats using zonde one. After 1 week adaptation, the rats were divided into 4 groups and arazyme was administered to 10 week-old rats at each concentration to observe general symptoms. Subsequently, an autopsy was performed after 24 hours in order to evaluate the toxicity of arazyme on actual organs.
After oral administration of arazyme into female rats, the behaviors, appearances, and functions of the animals were investigated in order to observe general symptoms exactly according to the administration of a test material and evaluate the toxicity.

TNF-α = assay: Measurement of TNF-α in serum by ELISA, osteoarthritis-induced rabbits; format: in vivo, NewZealand White Rabbits; details: autopsy at 12 weeks of administration in drinking water, arazyme 250 mg/kg, celecoxib 10 mg/kg/day, no statistical significance
Source text: as §1, §3, §2

[4] = after single oral administration up to 5000 mg/kg

B1: arazyme: enzyme purified from Aranicola proteolyticus HY-3 (KCTC 0268BP) culture; monomer of approximately 51.5 kDa; amino acid sequence SEQ ID No: 1 (protein, listed as Aranicola proteolyticus)
chain: MQSTKKAIEITESSLAAASSAYNAVDDLLHYHERGNGIQVNGKDSFSTEQAGLFITRENQTWNGYKVFGQPVKLTFSFPDYKFSSTNVAGDTGLSKFSAEQQQQAKLSLQSWSDVANITFTEVGAGQKANITFGNYSQDRPGHYDYDTQAYAFLPNTIYQGQNLGGQTWYNVNQSNVKHPASEDYGRQTFTHEIGHALGLSHPGDYNAGEGNPTYRDASYAEDTREFSLMSYWSETNTGGDNGGHYAAAPLLDDISAIQHLYGANQTTRTGDTVYGFNSNTGRDFLSTTSNPQKVIFAAWDAGGNDTFDFSGYTANQRINLNEKSFSDVGGLKGNVSIAAGVTIENAIGGSGNDVIVGNAANNVLKGGAGNDVLFGGGGADELWGGAGKDTFVFSAVSDSAPGASDWIKDFQKGIDKIDLSFFNQGAQGGDQIHFVDHFSGAAGEALLSYNASNNVSDLALNIGGHQAPDILVKIVGQVDVATDFIV
modifications: Zn binding site (192)..(192); Zn binding site (196)..(196); Zn binding site (323)..(323)
[1]
  damage of joint cartilage, hematoxylin-eosin staining: most of the vertical fissures were formed into sites corresponding to the mid zones from the surface
  loss of collagen, azan staining: weak loss of collagen
  loss of proteoglycan, toluidine blue staining: proteoglycan was lost into the mid zone
[2]; arazyme 250 mg/kg, celecoxib 10 mg/kg/day
  cartilage damage of femoral joint surface, visual observation: less cartilage damage was generally shown than in the negative control group
[2]; positive control group compared with test material group
  lesions of tibia joint surface, visual observation: generally similar lesions were observed in the groups
[3]; 24 hours after oral administration up to 5000 mg/kg
  microscopic findings in liver, heart, lung and pancreas: No pathological symptoms were observed
[3]; [4]
  general symptoms (activity, walking, temperament, convulsion): no abnormal symptoms
  outward appearance and functions (respiration, salivation, feces, vomiting): No abnormal changes were observed
[3]; single oral administration 0, 1250, 2500, 5000 mg/kg
  estimated LD50: at least 5000 mg/kg
TNF-α
  expression of TNF-α in serum compared with negative control group: at a lower level than the negative control group
